Laboratory results: patent US20210277066A1 (BRIGHAM AND WOMEN S HOSPITAL, published 2021)

Molecular target: T1, mouse LY6A (mouse, UniProt P05533 27-112)
T1 construct: whole, on cells; Over-expressed on HEK293T cells
T1 sequence: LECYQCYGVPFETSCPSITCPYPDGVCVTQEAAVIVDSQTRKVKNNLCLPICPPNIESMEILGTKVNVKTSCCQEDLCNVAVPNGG
Experiment: AAV binding to LY6A-transfected HEK293T cells on ice; bound viral genomes counted by qPCR

Row | Binder | binding result
1 | AAV.CPP.21 (other, Tested as a whole recombinant AAV particle (rAAV-mCherry); also called Bip2.6 insert TVSALFK) MAADGYLPDWLEDNLSEGIREWWALKPGAPQPKANQQHQDNARGLVLPGYKYLGPGNGLDKGEPVNAADAAALEHDKAYDQQLKAGDNPYLKYNHADAEFQERLKEDTSFGGNLGRAVFQAKKRLLEPLGLVEEAAKTAPGKKRPVEQSPQEPDSSAGIGKSGAQPAKKRLNFGQTGDTESVPDPQPIGEPPAAPSGVGSLTMASGGGAPVADNNEGADGVGSSSGNWHCDSQWLGDRVITTSTRTWALPTYNNHLYKQISNSTSGGSSNDNAYFGYSTPWGYFDFNRFHCHFSPRDWQRLINNNWGFRPKRLNFKLFNIQVKEVTDNNGVKTIANNLTSTVQVFTDSDYQLPYVLGSAHEGCLPPFPADVFMIPQYGYLTLNDGSQAVGRSSFYCLEYFPSQMLRTGNNFQFSYEFENVPFHSSYAHSQSLDRLMNPLIDQYLYYLSKTINGSGQNQQTLKFSVAGPSNMAVQGRNYIPGPSYRQQRVSTTVTQNNNSEFAWPGASSWALNGRNSLMNPGPAMASHKEGEDRFFPLSGSLIFGKQGTGRDNVDADKVMITNEEEIKTTNPVATESYGQVATNHQSAQTVSALFKAQAQTGWVQNQGILPGMVWQDRDVYLQGPIWAKIPHTDGNFHPSPLMGGFGMKHPPPQILIKNTPVPADPPTAFNKDKLNSFITQYSTGQVSVEIEWELQKENSKRWNPEIQYTSNYYKSNNVEFAVNTEGVYSEPRPIGTRYLTRNL | no binding (tested: MOI of 10000)
2 | AAV.CPP.16 (other, Tested as a whole recombinant AAV particle (rAAV-mCherry); also called Bip2.1 insert TVSALK) MAADGYLPDWLEDNLSEGIREWWALKPGAPQPKANQQHQDNARGLVLPGYKYLGPGNGLDKGEPVNAADAAALEHDKAYDQQLKAGDNPYLKYNHADAEFQERLKEDTSFGGNLGRAVFQAKKRLLEPLGLVEEAAKTAPGKKRPVEQSPQEPDSSAGIGKSGAQPAKKRLNFGQTGDTESVPDPQPIGEPPAAPSGVGSLTMASGGGAPVADNNEGADGVGSSSGNWHCDSQWLGDRVITTSTRTWALPTYNNHLYKQISNSTSGGSSNDNAYFGYSTPWGYFDFNRFHCHFSPRDWQRLINNNWGFRPKRLNFKLFNIQVKEVTDNNGVKTIANNLTSTVQVFTDSDYQLPYVLGSAHEGCLPPFPADVFMIPQYGYLTLNDGSQAVGRSSFYCLEYFPSQMLRTGNNFQFSYEFENVPFHSSYAHSQSLDRLMNPLIDQYLYYLSKTINGSGQNQQTLKFSVAGPSNMAVQGRNYIPGPSYRQQRVSTTVTQNNNSEFAWPGASSWALNGRNSLMNPGPAMASHKEGEDRFFPLSGSLIFGKQGTGRDNVDADKVMITNEEEIKTTNPVATESYGQVATNHQSAQTVSALKAQAQTGWVQNQGILPGMVWQDRDVYLQGPIWAKIPHTDGNFHPSPLMGGFGMKHPPPQILIKNTPVPADPPTAFNKDKLNSFITQYSTGQVSVEIEWELQKENSKRWNPEIQYTSNYYKSNNVEFAVNTEGVYSEPRPIGTRYLTRNL | no binding (tested: MOI of 10000)
